*1 amine or outer side, *2 acyl side, *3 side chain or, on linkers, in order; H or OH if unused. Where no end group is shown, it is not given here. Side-chain parts run from the residue outwards. [ ]: non-standard residue; d: D form. The star is where a group is joined. γGlu = O=C(O)[C@H](CCC(=O)[*:2])N[*:1]; Palmitoyl = CCCCCCCCCCCCCCCC(=O)*; Aib = CC(C)(N)C(=O)O

The labels stand for the following.
B1: SEQ ID NO: (59) (peptide)
peptide: H[Aib]QGTFTSDLSKQMDSRRAQDFIEWLKNGGPSSGAPPPSK([γGlu-Palmitoyl])-NH2
modifications: N-terminus assumed
SMILES: CCCCCCCCCCCCCCCC(=O)N[C@@H](CCC(=O)NCCCC[C@H](NC(=O)[C@H](CO)NC(=O)[C@@H]1CCCN1C(=O)[C@@H]1CCCN1C(=O)[C@@H]1CCCN1C(=O)[C@H](C)NC(=O)CNC(=O)[C@H](CO)NC(=O)[C@H](CO)NC(=O)[C@@H]1CCCN1C(=O)CNC(=O)CNC(=O)[C@H](CC(N)=O)NC(=O)[C@H](CCCCN)NC(=O)[C@H](CC(C)C)NC(=O)[C@H](Cc1c[nH]c2ccccc12)NC(=O)[C@H](CCC(=O)O)NC(=O)[C@@H](NC(=O)[C@H](Cc1ccccc1)NC(=O)[C@H](CC(=O)O)NC(=O)[C@H](CCC(N)=O)NC(=O)[C@H](C)NC(=O)[C@H](CCCNC(=N)N)NC(=O)[C@H](CCCNC(=N)N)NC(=O)[C@H](CO)NC(=O)[C@H](CC(=O)O)NC(=O)[C@H](CCSC)NC(=O)[C@H](CCC(N)=O)NC(=O)[C@H](CCCCN)NC(=O)[C@H](CO)NC(=O)[C@H](CC(C)C)NC(=O)[C@H](CC(=O)O)NC(=O)[C@H](CO)NC(=O)[C@@H](NC(=O)[C@H](Cc1ccccc1)NC(=O)[C@@H](NC(=O)CNC(=O)[C@H](CCC(N)=O)NC(=O)C(C)(C)NC(=O)[C@@H](N)Cc1c[nH]cn1)[C@@H](C)O)[C@@H](C)O)[C@@H](C)CC)C(N)=O)C(=O)O
B2: SEQ ID NO: (71) (peptide)
peptide: H[dS]QGTFTSDLSKQMDSRRAQDFIEWLKNTGPSSGAPPPSK([γGlu-Palmitoyl])-NH2
modifications: N-terminus assumed
SMILES: CCCCCCCCCCCCCCCC(=O)N[C@@H](CCC(=O)NCCCC[C@H](NC(=O)[C@H](CO)NC(=O)[C@@H]1CCCN1C(=O)[C@@H]1CCCN1C(=O)[C@@H]1CCCN1C(=O)[C@H](C)NC(=O)CNC(=O)[C@H](CO)NC(=O)[C@H](CO)NC(=O)[C@@H]1CCCN1C(=O)CNC(=O)[C@@H](NC(=O)[C@H](CC(N)=O)NC(=O)[C@H](CCCCN)NC(=O)[C@H](CC(C)C)NC(=O)[C@H](Cc1c[nH]c2ccccc12)NC(=O)[C@H](CCC(=O)O)NC(=O)[C@@H](NC(=O)[C@H](Cc1ccccc1)NC(=O)[C@H](CC(=O)O)NC(=O)[C@H](CCC(N)=O)NC(=O)[C@H](C)NC(=O)[C@H](CCCNC(=N)N)NC(=O)[C@H](CCCNC(=N)N)NC(=O)[C@H](CO)NC(=O)[C@H](CC(=O)O)NC(=O)[C@H](CCSC)NC(=O)[C@H](CCC(N)=O)NC(=O)[C@H](CCCCN)NC(=O)[C@H](CO)NC(=O)[C@H](CC(C)C)NC(=O)[C@H](CC(=O)O)NC(=O)[C@H](CO)NC(=O)[C@@H](NC(=O)[C@H](Cc1ccccc1)NC(=O)[C@@H](NC(=O)CNC(=O)[C@H](CCC(N)=O)NC(=O)[C@@H](CO)NC(=O)[C@@H](N)Cc1c[nH]cn1)[C@@H](C)O)[C@@H](C)O)[C@@H](C)CC)[C@@H](C)O)C(N)=O)C(=O)O

Sequence of human glucagon receptor (P47871 26-477): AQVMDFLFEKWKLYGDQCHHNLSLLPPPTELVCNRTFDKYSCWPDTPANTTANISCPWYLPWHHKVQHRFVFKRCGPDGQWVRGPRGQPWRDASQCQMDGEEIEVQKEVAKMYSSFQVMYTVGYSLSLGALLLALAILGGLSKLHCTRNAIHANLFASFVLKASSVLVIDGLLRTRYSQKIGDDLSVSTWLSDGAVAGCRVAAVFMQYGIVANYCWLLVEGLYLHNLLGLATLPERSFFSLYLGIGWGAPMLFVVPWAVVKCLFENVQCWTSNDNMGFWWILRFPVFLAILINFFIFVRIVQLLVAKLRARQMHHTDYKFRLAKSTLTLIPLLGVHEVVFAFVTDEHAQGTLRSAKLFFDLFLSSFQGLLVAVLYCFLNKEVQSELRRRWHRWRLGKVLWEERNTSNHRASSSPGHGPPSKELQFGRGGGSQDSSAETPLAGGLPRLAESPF

One assay has as its target human glucagon receptor (human, UniProt P47871 26-477). Briefly: cell-based or functional assay.
For B1, the “EC50 hGlucagonR (cAMP formation)” value worked out at 0.0409 nM.

Consider HGEGTFTSDLSKQMDSRRAQDFIEWLKNGGPSSGAPPPS-NH2 [SEQ ID NO: (4)], for which the “EC50 hGlucagonR (cAMP formation)” value turned out to be 565 nM.

A further assay deals with human GLP-1 receptor (human, UniProt P43220 24-463). Briefly: cell-based or functional assay.
On to B2, for which the “EC50 hGLP-1R (cAMP formation)” value was determined as 0.0056 nM.

In the case of H[dS]QGTFTSDLSKQMDSRRAQDFIEWLKN[dA]GPSSGAPPPSK([γGlu-Palmitoyl])-NH2 [SEQ ID NO: (68)], the “EC50 hGLP-1R (cAMP formation)” value came out at 0.0123 nM.

On to HSQGTFTSDLSKQMDSRRAQDFIEWLKNGGPSSGAPPPK([γGlu-Palmitoyl])-NH2 [SEQ ID NO: (6)], for which the “EC50 hGLP-1R (cAMP formation)” value was 0.0031 nM.

As for H[dS]QGTFTSDLSKQMDSRRAQDFIEWLKNAGPSSGAPPPSK([γGlu-Palmitoyl])-NH2 [SEQ ID NO: (67)], the “EC50 hGLP-1R (cAMP formation)” value is 0.0215 nM.

With B1, the “EC50 hGLP-1R (cAMP formation)” value was found to be 0.0029 nM.

In the case of HGEGTFTSDLSKQMDSRRAQDFIEWLKNGGPSSGAPPPS-NH2 [SEQ ID NO: (4)], the “EC50 hGLP-1R (cAMP formation)” value was 0.0174 nM.

(Values after patent publication US20130336893A1 (Sanofi, published 2013).)
